Source: patent US20130323813, “PEPTIDES FOR THE SPECIFIC BINDING OF RNA TARGETS” (THE UNIVERSITY OF WESTERN AUSTRALIA, published 2013)

Legend:
[1] = target: T1, PUM1 PUF CR (repeat 6 Cys12/Arg16) (Homo sapiens, UniProt Q14671 SEQ:1-351); test: EMSA; 10 mM HEPES pH 8.0, 50 mM KCl, 1 mM EDTA, RT; details: tags: intein-CBD cleaved for EMSA; label: 5'-fluorescein
T1 chain: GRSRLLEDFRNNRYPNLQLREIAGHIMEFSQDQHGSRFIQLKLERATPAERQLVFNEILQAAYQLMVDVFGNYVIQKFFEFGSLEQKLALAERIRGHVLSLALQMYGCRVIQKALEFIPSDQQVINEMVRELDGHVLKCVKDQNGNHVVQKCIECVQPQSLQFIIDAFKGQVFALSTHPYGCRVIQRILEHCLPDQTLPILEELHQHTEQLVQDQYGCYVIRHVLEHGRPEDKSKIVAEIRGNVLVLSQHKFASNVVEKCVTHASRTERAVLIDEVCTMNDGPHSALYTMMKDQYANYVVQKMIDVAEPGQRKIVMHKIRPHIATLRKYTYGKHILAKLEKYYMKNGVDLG
Method: (§1) Purified PUF domains were incubated at room temperature for 30 min with fluorescein labeled RNA oligonucleotides (Dharmacon) in 10 mM HEPES (pH 8.0), 1 mM EDTA, 50 mM KCl, 2 mM DTT, 0.1 mg/ml fatty acid-free BSA, and 0.02% Tween-20.

[2] = target: T2, PUM1 PUF GR (repeat 6 Gly12/Arg16) (Homo sapiens, UniProt Q14671 SEQ:1-351); test: EMSA; 10 mM HEPES pH 8.0, 50 mM KCl, 1 mM EDTA, RT; details: tags: intein-CBD cleaved for EMSA; label: 5'-fluorescein
T2 chain: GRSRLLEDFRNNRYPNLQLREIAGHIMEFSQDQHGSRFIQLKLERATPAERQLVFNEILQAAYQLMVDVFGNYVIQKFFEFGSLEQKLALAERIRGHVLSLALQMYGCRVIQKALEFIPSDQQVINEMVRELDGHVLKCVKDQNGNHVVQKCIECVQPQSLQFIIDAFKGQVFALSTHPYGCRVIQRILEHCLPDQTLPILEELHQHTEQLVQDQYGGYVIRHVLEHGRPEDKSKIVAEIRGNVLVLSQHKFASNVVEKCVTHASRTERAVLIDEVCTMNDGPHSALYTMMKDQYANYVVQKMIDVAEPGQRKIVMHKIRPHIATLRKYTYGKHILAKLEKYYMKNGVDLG
Method: as §1

## AUUGCAUAUA (ssRNA) [NREU3C (Fl)]
[1]
  binding result: binds
[2]
  binding result: binds
